Experimental findings from patent US20240190943A1 (HANGZHOU EXEGENESIS BIO, published 2024) are described below.

The term EC50 (read off the curve) denotes the concentration giving half of the maximal effect.

For one assay, the target named is T1, angiopoietin 2 (UniProt O15123 19-496, limits assumed).
T1 construct: also called Ang2; ANGPT2
T1 sequence (looked up): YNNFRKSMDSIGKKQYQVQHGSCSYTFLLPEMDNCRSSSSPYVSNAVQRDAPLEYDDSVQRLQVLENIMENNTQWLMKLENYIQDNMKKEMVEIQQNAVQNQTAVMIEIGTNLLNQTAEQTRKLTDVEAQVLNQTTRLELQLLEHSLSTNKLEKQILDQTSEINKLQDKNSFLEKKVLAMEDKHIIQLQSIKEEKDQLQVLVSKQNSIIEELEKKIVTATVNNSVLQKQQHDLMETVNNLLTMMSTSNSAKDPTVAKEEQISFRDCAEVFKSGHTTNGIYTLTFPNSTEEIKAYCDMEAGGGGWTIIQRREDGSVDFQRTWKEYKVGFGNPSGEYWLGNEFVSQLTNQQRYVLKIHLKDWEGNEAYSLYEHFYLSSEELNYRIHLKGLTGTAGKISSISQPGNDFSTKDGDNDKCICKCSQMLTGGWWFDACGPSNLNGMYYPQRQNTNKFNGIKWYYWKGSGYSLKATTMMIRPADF
As to the kind of experiment: Ang2 ELISA, shown relative to Exg102-04; middle bar of each group.

A further assay deals with T2, VEGF-A (UniProt P15692-4 27-191, limits assumed).
T2 construct: also called rVEGF; vascular endothelial growth factor
T2 sequence (P15692 other isoform, or with tags, fused parts or gaps limits assumed): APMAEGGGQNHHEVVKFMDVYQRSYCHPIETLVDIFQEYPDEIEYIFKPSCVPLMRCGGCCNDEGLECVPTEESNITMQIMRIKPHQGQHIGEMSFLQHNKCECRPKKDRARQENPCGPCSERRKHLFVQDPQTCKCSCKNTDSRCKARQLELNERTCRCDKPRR
Nature of the assay: VEGF-A binding ELISA (OD450), titration in pM of the product of plasmid-transfected cells.

B1: Exg102-13 (other)
fusion polypeptide (Flt1 signal - VEGFR1 D2 - VEGFR2 D3 - Fc-Hinge - Ang BD): SDTGRPFVEMYSEIPEIIHMTEGRELVIPCRVTSPNITVTLKKFPLDTLIPDGKRIIWDSRKGFIISNATYKEIGLLTCEATVNGHLYKTNYLTHRQTNTIIDVVLSPSHGIELSVGEKLVLNCTARTELNVGIDFNWEYPSSKHQHKKLVNRDLKTQSGSEMKKFLSTLTIDGVTRSDQGLYTCAASSGLMTKKNSTFVRVHEKDKTHTCPPCPAPELLGGPSVGGGGGSGGGGGAQQEECEWDPWTCEHMGSGSATGGSGSTASSGSGSATHQEECEWDPWTCEHMLE
notes: Carries only the N-terminal 21 amino acids of the Fc (Fc-Hinger) and no full Fc; also called Exemplary polypeptide 4
Regarding B1, the binding result with angiopoietin 2 is reported as “no binding”.

B2: control polypeptide without an Ang BD (Fc fusion)
chain: SDTGRPFVEMYSEIPEIIHMTEGRELVIPCRVTSPNITVTLKKFPLDTLIPDGKRIIWDSRKGFIISNATYKEIGLLTCEATVNGHLYKTNYLTHRQTNTIIDVVLSPSHGIELSVGEKLVLNCTARTELNVGIDFNWEYPSSKHQHKKLVNRDLKTQSGSEMKKFLSTLTIDGVTRSDQGLYTCAASSGLMTKKNSTFVRVHE
notes: Signal peptide left out; also called EXG102-02; EXG102-03-1; not shown: Fc fragment of human IgG
Turning to B2, in the assay with angiopoietin 2, the binding result was “no binding”. Further, in the assay with VEGF-A, the “EC50 (read off the curve)” value is ~0.3 nM.
